This is an account of results in US20220073611A1.

The assay deals with NR1 ATD fusion protein on 293T-ATD cells (human). In words: flow cytometry on 293T-ATD cells, co-stained with commercial anti-NR1 mAb.
Chain of NR1 ATD fusion protein on 293T-ATD cells (human) (chain, as listed by the source limits assumed): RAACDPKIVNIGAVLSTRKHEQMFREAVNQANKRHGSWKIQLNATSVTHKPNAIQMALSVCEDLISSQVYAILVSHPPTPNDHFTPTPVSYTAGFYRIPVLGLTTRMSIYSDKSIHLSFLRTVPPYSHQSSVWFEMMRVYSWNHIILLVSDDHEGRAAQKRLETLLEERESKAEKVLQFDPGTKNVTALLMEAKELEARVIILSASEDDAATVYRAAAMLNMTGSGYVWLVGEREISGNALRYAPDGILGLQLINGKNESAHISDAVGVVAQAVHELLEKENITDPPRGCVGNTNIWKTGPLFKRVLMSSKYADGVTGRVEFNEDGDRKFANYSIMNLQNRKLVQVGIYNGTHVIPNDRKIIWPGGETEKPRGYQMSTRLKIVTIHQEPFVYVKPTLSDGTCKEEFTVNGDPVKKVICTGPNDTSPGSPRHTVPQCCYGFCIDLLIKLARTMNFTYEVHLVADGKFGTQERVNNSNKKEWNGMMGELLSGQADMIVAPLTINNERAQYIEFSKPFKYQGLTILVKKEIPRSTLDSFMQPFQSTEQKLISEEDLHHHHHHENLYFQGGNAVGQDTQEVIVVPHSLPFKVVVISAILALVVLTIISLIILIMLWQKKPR

Turning to 6A isotype control human mAb (antibody), the Percent GluN1 positive 293T-ATD cells bound was found to be 18% and the double positive cells came to 12.4%.
